Results published in paper PMC7336285, “Metabolite‐based genome‐wide association study enables dissection of the flavonoid decoration pathway of wheat kernels” (Plant Biotechnology Journal, 2020).

How the values were obtained:
[1] = substrate: COc1cc(-c2cc(=O)c3c(O)cc(O)cc3o2)cc(OC)c1O; assay: LC-MS product assay, Michaelis-Menten fit; type: biochemical, Triticum aestivum; settings: formation of tricin 4′-O-glucoside (product postulated), UDP-glucose 0.75 mM, MgCl2 10 mM, Tris-HCl pH 7.4, 37 °C
[2] = substrate: COc1cc(-c2cc(=O)c3c(O)cc(O[C@@H]4O[C@H](CO)[C@@H](O)[C@H](O)[C@H]4O)cc3o2)cc(OC)c1O; assay: LC-MS product assay, Michaelis-Menten fit; type: biochemical, Triticum aestivum; settings: formation of tricin 7-O-malonylglucoside, malonyl-CoA 0.03 mM, Tris-HCl pH 7.4, 37 °C

B1: TraesCS1A01G347100 (Triticum aestivum) (protein)
chain: MEAANPNPTVVLHACLGVGHLIPMVELAKLFLLRGVPVVIAVPTPPASTADFFSSTASAVAGLEAANPSIAFHHLPPPDYPDPDPHPFLQMLDLLRLTVPSLLAFLRSLPSVAALVLDLFCIDSLDAAAQTGVPAYIYYTSSAGDLAAFLHLPHHFATTEGSFRDMGKAPLRFPGVPPIPASDMPHTVMDRADPICTIRIGHYGRIPEARGVLVNTYEWLEARAVGALREGVCVPGRPTPPVYCIGPLIVSDSAAAQGERHACLSWLDAQPERSVVFLCFGSMGAVSAAELKEIAHGLENSGHRFLWVVRTPPADPAKFFLPRPEPDLDALLPEGFTERTRDRGMVLKMWAPQVEVLRHAATGAFVTHCGWNSVLEAASAGVPMLCWPQYAEQRLNKEFVVDEMKVGVVMEGYDEELVRAEEVERKVRLVMESEEGEKLRERLALAKEKAAEAMADGGPSRMALAEFLKHSKLST
notes: GST-tagged (pGEX-6p-1), E. coli BL21(DE3), glutathione Sepharose purified, tag cleavage not mentioned
Km [1]: 6.49 ± 0.71 µM

B2: TraesCS2B01G472400 (Triticum aestivum) (protein)
chain: MARLLRTSLVAPSPAGAALHERSLPLTYLDALWLHATPVERVFFYPNATSDVLSNLTDSLSNALAAFYPLAGRLRLTPGAHNRYELHCQPGDGVTFTVAEYHHVGFDELATDEPTEVAKIVPLVPPLPEGGAVLAVQATVLRGGLAIGVTVHHAACDGVSSTHFLRTWAWAAAACSGASAPVPPFVDRSIIRARDDLYDAFTAPRLSSNDDDDGGKPPDSPVVQQLLATFTLSKEHLQSIKEAVAGEAERRGVPLPRATSIIAAFGFIWQCYVRAKPGTDGKAGSSCGGRAYFLLPADHRTRLEPPVPDEYLGNCLGPCIALAPRRDVAAAGADGLFTACAAIATAIDGVVRSGPGCWDGWMERIIEAYTAGDLPLTVAGSPRFRVYDTDFGFGRPAKVDVVSVARTGAMSVAEARSGGGGVEVGISLSAGAMERFNECFADAIASLSS
notes: as for B1
Km [2]: 20.53 ± 1.02 µM | kcat [2]: 81.72 ± 6.11 s⁻¹
